Laboratory results published in US20220348623A1 (Biogen, published 2022).

Target: T1, AspN-treated GDF11 (human, UniProt O95390 60-114; O95390 122-407, N-linked glycan at Asn-94, biotinylated through the glycan (Octet))
T1 construct: Full length GDF11 (ACE378) cleaved with endoproteinase AspN only; Glycopeptide 60-114 stays non-covalently associated with fragment 122-407, about 100 kDa by SEC; Minor fragments 60-117, 128-407, 133-407 and 25-114/117 were also detected; also called AspN digested GDF11; GDF11 Asp-N biotin sample
T1 sequence (peptide): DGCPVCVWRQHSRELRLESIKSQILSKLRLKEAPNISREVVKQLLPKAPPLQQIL
T1 sequence: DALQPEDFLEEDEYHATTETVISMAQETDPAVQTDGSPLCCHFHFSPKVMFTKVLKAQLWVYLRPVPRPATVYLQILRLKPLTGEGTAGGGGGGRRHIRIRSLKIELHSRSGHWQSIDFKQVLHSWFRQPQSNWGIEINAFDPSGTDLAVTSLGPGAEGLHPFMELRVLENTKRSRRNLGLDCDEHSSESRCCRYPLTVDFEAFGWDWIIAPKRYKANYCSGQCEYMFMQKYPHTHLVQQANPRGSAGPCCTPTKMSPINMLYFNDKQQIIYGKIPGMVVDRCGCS
Assay: Octet, biotinylated GDF11 sample captured on Streptavidin sensor, receptor-Fc in solution
Method: Following this treatment, GDF11 peptide 60-112/114 was in the supernatant and the rest of the protein precipitated and was in the pellet fraction. The specificity of labeling of GDF11 with biotin hydrazide was confirmed by Western blotting using Streptavidin Horseradish peroxidase for detection. Only full length GDF11 and glycopeptide 60-114 were detected and not the major fragments 122-407 or 299-407. Octet Binding Studies. Binding characteristics of the biotinylated samples were evaluated by Octet on an Octet RED System (FortéBio™, Menlo Park, Calif.) using Dip and Read™ Streptavidin (SA) Biosensors (FortéBio™). Samples were prepared in 5 mM NaH₂PO₄ pH 6.0, 150 mM NaCl, 0.005% Tween-20. […] The ability of biotinylated AspN/furin GDF11 to bind Type I and II receptors was also assessed by Octet using the same loading conditions, followed by treatment of the receptors at 10 μg/mL. […] The tips were washed for 1 min and dissociation monitored for 30 min in the presence of 20 μM free biotin. For secondary binding studies with the receptors, the tips were loaded with biotinylated GDF11 and controls, and washed as described above, then the receptor samples were loaded for 15 min and dissociation monitored for 5 min.
The binding characteristics of the GDF11 peptide 60-112/114 for mature GDF11 residues 299-407 and for AspN fragment residues 122-407 were assessed using an Octet Red system. […]

B1: Recombinant Human Activin RIB (ALK-4)-Fc chimeric protein (Fc fusion, UniProt P36896 24-126, looked up)
chain: SGPRGVQALLCACTSCLQANYTCETDGACMVSIFNLDGMEHHVRTCIPKVELVPAGKPFYCLSSEDLRNTHCCYTDYCNRIDLRVPSGHLKEPEHPSMWGPVE
notes: Bought from R&D systems; also called Activin RIB-Fc; Type I receptor; Fc part of the bought chimera not given
B1: no binding.
